Results from patent publication US20170088628A1, “Compositions and Methods for Identifying B Cell Malignancies Responsive to B Cell Depleting Therapy” (MedImmune, LLC, priority 2014, published 2017).
Blank lines part the entries; values can stand above or below the molecule they belong to.

What was measured:
[1] = test system: Chronic lymphocytic leukemia; test: CP-1019, Chronic lymphocytic leukemia patients treated with MEDI-551 or Rituximab+Bendamustine; assay type: in vivo, human; conditions: of 22 MEDI-551-treated / 12 Rituximab-treated patients
Description: miR-629 expression levels were measured in baseline peripheral blood mononucleated cell (PBMC) samples from Chronic lymphocytic leukemia patients treated with MEDI-551 or Rituximab+Bendamustine (CP-1019). • 22 MEDI-551-treated patients (10 CR/PR; 3 PD; 4 SD) • 12 Rituximab-treated patients (6 CR/PR; 2 PD; 2 SD)

[2] = test system: RL; test: in vitro ADCC assay; assay type: cell-based, human
[3] = test system: Relapsed or Refractory Advanced B-Cell Malignancies; test: Clinical Trial No. CP204, Phase 1 dose-escalation study of MEDI-551 as a single agent; assay type: in vivo, human
Description: miR-629 expression levels were measured in baseline whole blood samples from diffuse large B cell lymphoma (DLBCL), follicular lymphoma (FL), and Chronic lymphocytic leukemia (CLL) patients treated with an anti-CD19 antibody treatment as a single agent in Clinical Trial No. CP204, A Phase 1, Dose-escalation Study of MEDI-551, a Humanized Monoclonal Antibody Directed Against CD19, in Adult Subjects With Relapsed or Refractory Advanced B-Cell Malignancies.

[4] = test system: SUD-HL-6; test: in vitro ADCC assay; assay type: cell-based, human; conditions: SUD-HL-6, in vitro ADCC
[5] = biological target: FccRIIIA (Homo sapiens, UniProt P08637); conditions: afucosylated mAb relative to mAb anti-CD19-2; cited from earlier work
[6] = test system: DB (diffuse large cell lymphoma); test: in vitro ADCC assay; assay type: cell-based, human
[7] = test system: diffuse large B-cell lymphoma cell lines; test: in vitro ADCC assays, high versus low sensitivity cell lines; assay type: cell-based, human; conditions: in other cases 1000-fold or more
Excerpt: The following microRNAs had significant differences: miR-629; miR-99b; miR-let-7e; miR-15a; and miR-29a.

[8] = test system: Toledo cell lines; test: in vitro ADCC assay; assay type: cell-based, human
[9] = afucosylated mAb relative to mAb anti-CD19-2; cited from earlier work
[10] = test system: SU-DHL-6; test: ADCC assay after miR-629 over-expression; assay type: cell-based, human; conditions: SU-DHL-6, miR-629 over-expressed (miR-629 mimic)
Description: (§1) FIGS. 14A-D are graphs showing the results of an antibody dependent cytotoxicity (ADCC) assay. miR-629 was overexpressed in the specified cell type, and the cells were then treated with an anti-CD19 antibody (MEDI551).
(§2) The effect of altering miR-629 on sensitivity to treatment with an anti-CD19 antibody (MEDI551) was explored. Human leukemia and lymphoma cell lines Daudi, Toledo, and RL were obtained from American Type Culture Collection (ATCC); Karpas 1106P, Karpas 422, OCI-Ly-19, MEC2 were obtained from Deutsche Sammlung von Mikroorganismen und Zellkulturen (DSMZ, Germany). Cell lines were transfected with […] of a miR-629 mimic (Karpas 1106P, Karpas 422, Daudi, MEC2, OCI-Ly-19, SU-DHL-6, and Toledo), a miR-629 hairpin inhibitor (RL and ARH-77), or respective negative control oligonucleotides (all from Dharmacon) using PrimeFect (Lonza) for 24 hours. CD19 and CD20 surface expression was determined by flow cytometry (LSRII, BD Biosciences) using their respective fluorescently labeled monoclonal antibodies. Surface expression is reported as mean fluorescent intensity (MFI) and was averaged for untransfected as well as miR-629 and negative control transfected cells.

[11] = test system: Toledo; test: ADCC assay after miR-629 over-expression; assay type: cell-based, human; conditions: miR-629 over-expressed (miR-629 mimic)
Description: as §1, §2

[12] = test system: Daudi; test: ADCC assay after miR-629 over-expression; assay type: cell-based, human; conditions: miR-629 over-expressed (miR-629 mimic)
Description: as §1, §2

[13] = test system: MEC-2; test: ADCC assay after miR-629 over-expression; assay type: cell-based, human; conditions: MEC-2, miR-629 over-expressed (miR-629 mimic)
Description: as §1, §2

[14] = test system: Karpas-422; test: in vitro Antibody-dependent cellular cytotoxicity (ADCC) assay; assay type: cell-based, human; conditions: Karpas-422, in vitro ADCC
[15] = test system: Oci-Ly-19; test: in vitro ADCC assay; assay type: cell-based, human; conditions: Oci-Ly-19, in vitro ADCC
[16] = test system: ARH-77; test: in vitro ADCC assay; assay type: cell-based, human; conditions: ARH-77, in vitro ADCC
[17] = test system: Karpas 422 cells expressing miR-629; test: in vitro ADCC in miR-629 over-expressing cells; assay type: cell-based, human; conditions: miR-629 over-expression vs vector control
Description: FIGS. 12A and 12B are graphs. […] LDH release has been a known prognostic factor in lymphoma for many years and is measured routinely in clinical practice. […] Therefore, it is likely that miR-629 expression levels are related to the aggressiveness of the tumor. This could, in part, explain the correlation between miR-629 and response to MEDI-551.
The diffuse large B-cell lymphoma cell line Karpas-422 was transduced with a lentiviral vector over-expressing miR-629 or a scrambled miRNA control (Open Biosystems, Huntsville, Ala.) at an MOI of 2-20. Transduced cells were expanded for 1-2 weeks. Utilizing RFP, cells were sorted by fluorescence-activated cell sorting (FACS) into high miR-629 and low miR-629 populations. Clones were also generated using the limiting dilution method. Over-expression of miR-629 was evaluated by TaqMan QPCR.

FccRIIIA, sequence (P08637 17-254): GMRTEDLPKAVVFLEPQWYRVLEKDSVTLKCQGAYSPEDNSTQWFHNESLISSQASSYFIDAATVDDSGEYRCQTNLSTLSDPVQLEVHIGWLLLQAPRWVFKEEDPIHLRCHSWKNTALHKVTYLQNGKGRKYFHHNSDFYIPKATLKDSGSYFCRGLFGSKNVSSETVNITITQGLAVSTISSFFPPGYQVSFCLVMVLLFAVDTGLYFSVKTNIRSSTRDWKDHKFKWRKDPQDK

Molecule: Rituximab: anti-CD20 antibody therapy used as comparator [reference compound]
- CR/PR, number of patients [1]: 6
- PD, number of patients [1]: 2

- EC50s for the high sensitivity cell lines lower than the low sensitivity cell lines [7]: at least 100 fold
B1: MEDI-551: afucosylated form of the CD19 mAb anti-CD19-2, developed by humanization and affinity optimization of the HB12b mAb (antibody, chains of the INN, looked up, V domains shown)
VH: EVQLVESGGGLVQPGGSLRLSCAASGFTFSSSWMNWVRQAPGKGLEWVGRIYPGDGDTNYNVKFKGRFTISRDDSKNSLYLQMNSLKTEDTAVYYCARSGFITTVRDFDYWGQGTLVTVSS
VL: EIVLTQSPDFQSVTPKEKVTITCRASESVDTFGISFMNWFQQKPDQSPKLLIHEASNQGSGVPSRFSGSGSGTDFTLTINSLEAEDAATYYCQQSKEVPFTFGGGTKVEIK
modifications: afucosylated
- sensitivity to anti-CD19 antibody treatment [2]: low sensitivity
- CR/PR (complete or partial response), number of patients ([3]; Chronic lymphocytic leukemia): 3
- PD (progressive disease), number of patients ([3]; Chronic lymphocytic leukemia): 3
- CR/PR (complete or partial response), number of patients ([3]; diffuse large B-cell lymphoma): 5
- PD (progressive disease), number of patients ([3]; diffuse large B-cell lymphoma): 10
- CR/PR (complete or partial response), number of patients ([3]; follicular lymphoma): 6
- PD (progressive disease), number of patients ([3]; follicular lymphoma): 2
- sensitivity to anti-CD19 antibody treatment [4]: high sensitivity
- affinity to FccRIIIA [5]: increased
- sensitivity to anti-CD19 antibody treatment [6]: low sensitivity
- sensitivity to anti-CD19 antibody treatment [8]: high sensitivity
- CR/PR, number of patients [1]: 10
- PD, number of patients [1]: 3
- ADCC activity [9]: enhanced
- difference in cytotoxicity [10]: 15-20%
- difference in cytotoxicity [11]: 15-20%
- reduced sensitivity to anti-CD19 antibody [12]: 15-25%
- reduced sensitivity to anti-CD19 antibody [13]: 15-25%
- sensitivity to anti-CD19 antibody treatment [14]: highly sensitive
- sensitivity to anti-CD19 antibody treatment ([14]; listed as anti-CD19 antibody): high sensitivity
- sensitivity to anti-CD19 antibody treatment [15]: high sensitivity
- sensitivity to anti-CD19 antibody treatment [16]: low sensitivity
- shift in Ec50 for anti-CD19 antibody treatment in in vitro ADCC [17]: slight shift
